Where “and” joins values, the source holds several entries; their conditions need not be identical. Identical values can stand only once.
Biological target: the molecule itself
Experiment: AUC; sedimentation velocity, interference optics, OPN 1 mg/mL, 20 °C, 50,000 rpm; buffer changed from 20 mM THAM (10 mM NaCl, pH 8.00) to 20 mM PBS

B1: Osteopontin (bovine milk osteopontin, in-house reference standard) (natural protein)
chain: not shown
modifications: phosphorylations (~1.7 kDa) and O-linked glycosylations (2.9 kDa) on the full-length form; sites not given
notes: Osteopontin, bovine, from milk; By MALDI-TOF the material also holds an N-terminal fragment (150 amino acids, ~19.8 kDa); The sample is a mixture of full-length OPN and an N-terminal fragment of about 150 residues; also called OPN; bovine OPN; source: high-purity OPN protein ingredient extracted and provided by Arla Foods Ingredients (Denmark)
stoichiometry N: 4 and 8
